Here are results for 31 variants from FireProtDB (doi:10.1002/pro.164).

Sequences and labels used below:
B1: M63A, Q6T418 (parent)
chain: MERKTFSFLFLLLLVLASDVAVERGEARTCMIKKEGWGKCLIDTTCAHSCKNRGYIGGNCKGMTRTCYCLVNC

The series covers variants of B1. The following applies: Vigna radiata; pH 7; 37 °C; GdnHCl; Fluorescence; Tris-HCl 10 mM; NaCl 100 mM; structure 1TI5; whole UniProt chain shown.
M63A: the “denaturant midpoint (higher = more stable)” value (shortened to “denaturant midpoint”) worked out at 3.88 M.
Under M31A stands 3.66 M; under Y55A, 3.1 M; under K33A, 2.57 M.
Under D43A stands 2.96 M.
As to I42A, the “denaturant midpoint” value came to 3.87 M.
The value for T66A was 3.32 M.
The value for C30A C73A was 2.69 M.
With H48A, the “denaturant midpoint” value amounted to 4.33 M.
With G36A, the “denaturant midpoint” value was found to be 3.27 M.
Under T44A stands 3.32 M; under G62A, 3.44 M; under V71A, 3.14 M.
Under G57A stands 3.26 M; under K39A, 2.48 M.
With N59A, the “denaturant midpoint” value was found to be 2.64 M.
Under Y68A stands 3.73 M.
For R28A, the “denaturant midpoint” value was found to be 3.29 M.
For the variant I56A, the “denaturant midpoint” value came out at 3.32 M.
On to S49A, for which the “denaturant midpoint” value stood at 2.84 M.
Under K61A stands 3.31 M; under R53A, 2.76 M.
Under T45A stands 4.5 M; under R65A, 2.97 M.
The value for T64A was 2.98 M.
As for L70A, the “denaturant midpoint” value was 4.69 M.
As to G38A, the “denaturant midpoint” value came out at 4.66 M.
Turning to K34A, the “denaturant midpoint” value is 2.53 M.
As for K51A, the “denaturant midpoint” value was 2.81 M.
The value for I32A was 2.93 M.
In the case of N52A, the “denaturant midpoint” value came to 3.49 M.
